Measurements reported in US20150344570A1 (published 2015).

B1: GpH7-B3 variant A327_09D/GpL16-k0 (antibody, human IgG1, kappa)
heavy: not shown
light: DIVMTQSPLSLPVTPGEPASISCQASESLVHSNRNTYLHWYLQKPGQSPQLLIYKVSNRFSGVPDRFSGSGSGTDFTLKISRVEAEDVGVYYCSQNTHVPPTFGQGTKVEIERTVAAPSVFIFPPSDEQLKSGTASVVCLLNNFYPREAKVQWKVDNALQSGNSQESVTEQDSKDSTYSLSSTLTLSKADYEKHKVYACEVTHQGLSSPVTKSFNRGEC
notes: also called Ho Ab A327_09D
B2: GpH7-B3 variant L235_20W/GpL16-k0 (antibody, human IgG1, kappa)
heavy: not shown
light: B1 light
notes: also called Ho Ab L235_20W
B3: GpH7-B3 variant S239_10E/GpL16-k0 (antibody, human IgG1, kappa)
heavy: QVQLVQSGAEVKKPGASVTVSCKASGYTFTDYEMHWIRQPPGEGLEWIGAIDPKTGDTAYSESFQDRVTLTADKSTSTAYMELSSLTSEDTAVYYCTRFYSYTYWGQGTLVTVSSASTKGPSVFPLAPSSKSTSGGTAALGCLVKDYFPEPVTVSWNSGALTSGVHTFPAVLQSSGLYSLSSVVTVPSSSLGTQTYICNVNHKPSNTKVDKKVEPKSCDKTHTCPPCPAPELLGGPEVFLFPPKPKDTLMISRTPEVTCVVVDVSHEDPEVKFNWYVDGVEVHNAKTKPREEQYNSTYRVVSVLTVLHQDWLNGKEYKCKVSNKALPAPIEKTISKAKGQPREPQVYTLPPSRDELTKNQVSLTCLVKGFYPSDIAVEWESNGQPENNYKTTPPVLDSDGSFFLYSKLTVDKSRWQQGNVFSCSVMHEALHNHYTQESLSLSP
light: B1 light
notes: also called Ho Ab S239_10E
B4: GpH7-B3 variant S239_08L/GpL16-k0 (antibody, human IgG1, kappa)
heavy: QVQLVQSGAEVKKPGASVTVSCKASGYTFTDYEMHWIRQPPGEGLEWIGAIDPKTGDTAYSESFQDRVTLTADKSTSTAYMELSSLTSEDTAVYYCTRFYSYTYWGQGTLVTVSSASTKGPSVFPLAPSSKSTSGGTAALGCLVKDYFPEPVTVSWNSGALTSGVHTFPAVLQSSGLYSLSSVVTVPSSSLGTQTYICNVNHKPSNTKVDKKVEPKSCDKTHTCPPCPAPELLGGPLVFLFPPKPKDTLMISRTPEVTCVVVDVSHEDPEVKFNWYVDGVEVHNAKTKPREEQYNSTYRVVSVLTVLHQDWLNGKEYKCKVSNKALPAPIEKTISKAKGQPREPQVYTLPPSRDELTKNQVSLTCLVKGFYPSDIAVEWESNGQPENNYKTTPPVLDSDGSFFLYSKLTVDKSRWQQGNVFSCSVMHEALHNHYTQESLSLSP
light: B1 light
notes: also called Ho Ab S239_08L
B5: GpH7-B3 variant K334_16H/GpL16-k0 (antibody, human IgG1, kappa)
heavy: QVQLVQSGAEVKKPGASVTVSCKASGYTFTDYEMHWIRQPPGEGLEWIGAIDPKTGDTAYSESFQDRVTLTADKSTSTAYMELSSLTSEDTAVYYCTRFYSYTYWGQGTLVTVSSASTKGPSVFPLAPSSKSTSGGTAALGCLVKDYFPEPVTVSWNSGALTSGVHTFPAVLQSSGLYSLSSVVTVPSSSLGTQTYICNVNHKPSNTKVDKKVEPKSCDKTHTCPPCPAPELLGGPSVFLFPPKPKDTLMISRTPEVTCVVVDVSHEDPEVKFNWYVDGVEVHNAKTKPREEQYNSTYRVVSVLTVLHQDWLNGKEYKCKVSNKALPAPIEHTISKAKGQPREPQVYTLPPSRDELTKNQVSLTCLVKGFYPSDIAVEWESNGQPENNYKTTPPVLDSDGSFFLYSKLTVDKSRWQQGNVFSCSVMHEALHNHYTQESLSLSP
light: B1 light
notes: also called Ho Ab K334_16H
B6: GpH7-B3 variant L234_20W/GpL16-k0 (antibody, human IgG1, kappa)
heavy: not shown
light: B1 light
notes: also called Ho Ab L234_20W
B7: GpH7-B3 variant G236_14T/GpL16-k0 (antibody, human IgG1, kappa)
heavy: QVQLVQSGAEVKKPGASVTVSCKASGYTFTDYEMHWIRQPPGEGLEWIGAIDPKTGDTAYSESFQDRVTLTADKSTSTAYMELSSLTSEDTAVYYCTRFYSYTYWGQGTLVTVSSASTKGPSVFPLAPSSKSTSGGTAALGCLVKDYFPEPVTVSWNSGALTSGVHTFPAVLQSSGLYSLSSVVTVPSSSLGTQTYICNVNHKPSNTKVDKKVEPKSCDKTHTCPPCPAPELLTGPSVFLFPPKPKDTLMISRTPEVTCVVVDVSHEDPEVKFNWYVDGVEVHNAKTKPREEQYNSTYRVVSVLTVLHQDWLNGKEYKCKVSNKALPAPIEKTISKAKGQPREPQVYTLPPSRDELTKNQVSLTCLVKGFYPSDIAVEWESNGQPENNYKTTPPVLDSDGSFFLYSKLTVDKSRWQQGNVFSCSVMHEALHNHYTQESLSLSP
light: B1 light
notes: also called Ho Ab G236_14T
B8: GpH7-B3 variant E333_13S/GpL16-k0 (antibody, human IgG1, kappa)
heavy: not shown
light: B1 light
notes: also called Ho Ab E333_13S
B9: GpH7-B3 variant H268_02A/GpL16-k0 (antibody, human IgG1, kappa)
heavy: not shown
light: B1 light
notes: also called Ho Ab H268_02A
B10: GpH7-B3 variant S337_07I/GpL16-k0 (antibody, human IgG1, kappa)
heavy: not shown
light: B1 light
notes: also called Ho Ab S337_07I
B11: GpH7-B3 variant K334_13S/GpL16-k0 (antibody, human IgG1, kappa)
heavy: not shown
light: B1 light
notes: also called Ho Ab K334_13S
B12: GpH7-B3 variant K326_01G/GpL16-k0 (antibody, human IgG1, kappa)
heavy: not shown
light: B1 light
notes: also called Ho Ab K326_01G
B13: GpH7-B3 variant Y296_16H/GpL16-k0 (antibody, human IgG1, kappa)
heavy: not shown
light: B1 light
notes: also called Ho Ab Y296_16H
B14: GpH7-B3 variant G236_03V/GpL16-k0 (antibody, human IgG1, kappa)
heavy: not shown
light: B1 light
notes: also called Ho Ab G236_03V
B15: GpH7-B3 variant S267_10E/GpL16-k0 (antibody, human IgG1, kappa)
heavy: not shown
light: B1 light
notes: also called Ho Ab S267_10E
B16: GpH7-B3 variant E333_08L/GpL16-k0 (antibody, human IgG1, kappa)
heavy: not shown
light: B1 light
notes: also called Ho Ab E333_08L
B17: GpH7-B3 variant E333_04F/GpL16-k0 (antibody, human IgG1, kappa)
heavy: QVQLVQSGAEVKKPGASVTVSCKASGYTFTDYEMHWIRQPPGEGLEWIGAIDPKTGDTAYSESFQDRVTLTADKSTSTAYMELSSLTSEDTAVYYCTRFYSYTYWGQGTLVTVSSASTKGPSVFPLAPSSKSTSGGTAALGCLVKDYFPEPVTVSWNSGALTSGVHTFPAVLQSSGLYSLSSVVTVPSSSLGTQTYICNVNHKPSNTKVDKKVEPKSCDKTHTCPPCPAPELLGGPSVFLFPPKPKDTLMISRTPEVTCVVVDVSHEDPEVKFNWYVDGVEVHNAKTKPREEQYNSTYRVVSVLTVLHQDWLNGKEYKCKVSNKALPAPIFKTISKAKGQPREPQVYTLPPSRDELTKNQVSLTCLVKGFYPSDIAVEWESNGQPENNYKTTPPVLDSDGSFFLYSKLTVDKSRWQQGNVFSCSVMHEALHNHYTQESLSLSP
light: B1 light
notes: also called Ho Ab E333_04F
B18: GpH7-B3 variant V266_08L/GpL16-k0 (antibody, human IgG1, kappa)
heavy: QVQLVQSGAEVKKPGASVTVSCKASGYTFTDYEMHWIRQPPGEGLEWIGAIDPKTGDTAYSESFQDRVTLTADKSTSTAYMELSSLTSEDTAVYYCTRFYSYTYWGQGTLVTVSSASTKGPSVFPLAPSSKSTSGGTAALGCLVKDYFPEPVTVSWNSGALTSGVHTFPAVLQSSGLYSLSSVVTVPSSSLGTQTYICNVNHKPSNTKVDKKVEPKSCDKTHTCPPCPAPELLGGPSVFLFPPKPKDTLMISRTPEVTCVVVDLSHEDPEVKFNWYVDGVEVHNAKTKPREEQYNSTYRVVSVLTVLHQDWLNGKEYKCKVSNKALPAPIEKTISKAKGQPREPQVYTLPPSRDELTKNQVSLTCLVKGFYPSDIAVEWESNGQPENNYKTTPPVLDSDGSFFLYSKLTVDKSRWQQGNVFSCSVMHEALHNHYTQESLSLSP
light: B1 light
notes: also called Ho Ab V266_08L
B19: GpH7-B3 variant T335_20W/GpL16-k0 (antibody, human IgG1, kappa)
heavy: not shown
light: B1 light
notes: also called Ho Ab T335_20W
B20: GpH7-B3 variant T335_18N/GpL16-k0 (antibody, human IgG1, kappa)
heavy: not shown
light: B1 light
notes: also called Ho Ab T335_18N
B21: GpH7-B3 variant L234_04F/GpL16-k0 (antibody, human IgG1, kappa)
heavy: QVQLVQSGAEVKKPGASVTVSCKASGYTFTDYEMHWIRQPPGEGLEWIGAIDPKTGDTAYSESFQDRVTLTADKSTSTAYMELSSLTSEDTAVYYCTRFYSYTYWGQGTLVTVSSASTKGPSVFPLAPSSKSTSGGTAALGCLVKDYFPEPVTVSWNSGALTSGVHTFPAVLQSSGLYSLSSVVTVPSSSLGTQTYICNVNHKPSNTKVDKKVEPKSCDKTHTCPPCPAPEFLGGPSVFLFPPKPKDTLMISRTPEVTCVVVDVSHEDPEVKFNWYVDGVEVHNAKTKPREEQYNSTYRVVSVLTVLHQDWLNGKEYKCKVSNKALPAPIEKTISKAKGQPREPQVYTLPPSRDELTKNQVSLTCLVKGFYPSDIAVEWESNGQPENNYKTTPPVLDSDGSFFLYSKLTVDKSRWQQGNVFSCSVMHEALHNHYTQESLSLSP
light: B1 light
notes: also called Ho Ab L234_04F
B22: GpH7-B3 variant G236_15Y/GpL16-k0 (antibody, human IgG1, kappa)
heavy: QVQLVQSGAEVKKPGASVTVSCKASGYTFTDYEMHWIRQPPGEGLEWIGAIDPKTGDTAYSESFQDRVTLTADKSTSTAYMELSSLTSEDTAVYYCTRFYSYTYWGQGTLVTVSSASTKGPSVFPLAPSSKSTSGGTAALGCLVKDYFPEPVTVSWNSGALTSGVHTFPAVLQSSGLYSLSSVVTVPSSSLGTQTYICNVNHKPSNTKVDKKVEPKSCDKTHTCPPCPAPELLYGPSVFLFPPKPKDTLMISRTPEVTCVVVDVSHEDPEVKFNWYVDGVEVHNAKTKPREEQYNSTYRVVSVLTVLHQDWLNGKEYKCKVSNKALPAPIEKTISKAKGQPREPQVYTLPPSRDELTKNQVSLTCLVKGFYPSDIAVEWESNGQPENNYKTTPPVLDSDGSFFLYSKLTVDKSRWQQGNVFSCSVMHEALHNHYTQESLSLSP
light: B1 light
notes: also called Ho Ab G236_15Y
B23: GpH7-B3 variant K334_04F/GpL16-k0 (antibody, human IgG1, kappa)
heavy: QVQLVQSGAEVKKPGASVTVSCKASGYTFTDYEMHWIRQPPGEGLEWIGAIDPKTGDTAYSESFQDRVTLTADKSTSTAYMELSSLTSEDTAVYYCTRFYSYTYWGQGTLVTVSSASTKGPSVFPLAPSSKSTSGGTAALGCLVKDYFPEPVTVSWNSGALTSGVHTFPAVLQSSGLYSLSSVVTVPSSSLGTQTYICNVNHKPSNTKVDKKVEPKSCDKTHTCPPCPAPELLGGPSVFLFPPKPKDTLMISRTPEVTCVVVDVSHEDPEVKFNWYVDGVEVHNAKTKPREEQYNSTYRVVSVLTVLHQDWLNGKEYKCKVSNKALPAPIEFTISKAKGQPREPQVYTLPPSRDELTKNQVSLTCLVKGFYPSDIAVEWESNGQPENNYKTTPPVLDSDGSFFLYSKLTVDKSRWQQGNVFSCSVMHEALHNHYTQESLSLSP
light: B1 light
notes: also called Ho Ab K334_04F
B24: GpH7-B3 variant Y296_09D/GpL16-k0 (antibody, human IgG1, kappa)
heavy: not shown
light: B1 light
notes: also called Ho Ab Y296_09D
B25: GpH7-B3 variant K326_12R/GpL16-k0 (antibody, human IgG1, kappa)
heavy: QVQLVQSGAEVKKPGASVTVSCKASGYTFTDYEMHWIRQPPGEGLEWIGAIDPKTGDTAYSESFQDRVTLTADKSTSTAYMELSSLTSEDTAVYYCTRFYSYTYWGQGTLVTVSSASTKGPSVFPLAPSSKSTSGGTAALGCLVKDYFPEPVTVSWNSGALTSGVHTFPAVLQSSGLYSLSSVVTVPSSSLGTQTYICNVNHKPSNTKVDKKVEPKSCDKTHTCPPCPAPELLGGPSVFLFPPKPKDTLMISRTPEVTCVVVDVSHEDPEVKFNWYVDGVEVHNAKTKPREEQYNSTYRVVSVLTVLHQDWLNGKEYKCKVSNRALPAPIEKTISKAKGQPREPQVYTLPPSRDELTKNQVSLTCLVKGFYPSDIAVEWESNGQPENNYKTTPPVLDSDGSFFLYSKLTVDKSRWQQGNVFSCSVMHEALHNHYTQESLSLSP
light: B1 light
notes: also called Ho Ab K326_12R
B26: GpH7-B3 variant H268_18N/GpL16-k0 (antibody, human IgG1, kappa)
heavy: not shown
light: B1 light
notes: also called Ho Ab H268_18N
B27: GpH7-B3 variant K326_06M/GpL16-k0 (antibody, human IgG1, kappa)
heavy: not shown
light: B1 light
notes: also called Ho Ab K326_06M

Biological target: FcγRIIa H (human, UniProt P12318 34-217)
Sequence (P12318 34-217): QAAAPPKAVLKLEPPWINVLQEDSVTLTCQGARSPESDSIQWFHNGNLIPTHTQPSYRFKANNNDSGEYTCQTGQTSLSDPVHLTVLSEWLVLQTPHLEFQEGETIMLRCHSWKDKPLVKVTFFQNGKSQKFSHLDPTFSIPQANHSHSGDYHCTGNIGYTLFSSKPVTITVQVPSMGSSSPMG
Assay: SPR Biacore, captured antibody, FcγR analyte; vs GpH7-B3/GpL16-k0 = 100

Binder	Ho/Con_2aH
B1	90.1 % of control
B2	112 % of control
B3	91.4 % of control
B4	87 % of control
B5	101 % of control
B6	55.3 % of control
B7	94.2 % of control
B8	94.6 % of control
B9	111 % of control
B10	94 % of control
B11	94.9 % of control
B12	98.2 % of control
B13	85.7 % of control
B14	111 % of control
B15	98.5 % of control
B16	96.5 % of control
B17	93.6 % of control
B18	91.5 % of control
B19	98.7 % of control
B20	98 % of control
B21	54.2 % of control
B22	80.4 % of control
B23	103 % of control
B24	99.9 % of control
B25	98.8 % of control
B26	110 % of control
B27	101 % of control
